Experimental data from PMC10136361, “Inhibition Analysis and High-Resolution Crystal Structure of Mus musculus Glutathione Transferase P1-1” (Biomolecules, 2023).

Substrate: N[C@@H](CCC(=O)N[C@@H](CS)C(=O)NCC(=O)O)C(=O)O
Assay: purified protein
Details: G-site

B1: MmGSTP1-1 (Mus musculus) (protein)
chain: PPYTIVYFPVRGRCEAMRMLLADQGQSWKEEVVTIDTWMQGLLKPTCLYGQLPKFEDGDLTLYQSNAILRHLGRSLGLYGKNQREAAQMDMVNDGVEDLRGKYVTLIYTNYENGKNDYVKALPGHLKPFETLLSQNQGGKAFIVGDQISFADYNLLDLLLIHQVLAPGCLDNFPLLSAYVARLSARPKIKAFLSSPEHVNRPINGNGKQ
How did the Km turn out when B1 was run?
The Km was 0.22 ± 0.01 mM.
